Experimental data published in the supplement of paper PMC10471632, “Protein engineering and iterative multimodule optimization for vitamin B6 production in Escherichia coli” (Nature Communications, 2023).
± gives the standard deviation of the averaged measurements.

B1: library; numbered along this chain (parent)
chain: MAELLLGVNIDHIATLRNARGTAYPDPVQAAFIAEQAGADGITVHLREDRRHITDRDVRILRQTLDTRMNLEMAVTEEMLAIAVETKPHFCCLVPEKRQEVTTEGGLDVAGQRDKMRDACKRLADAGIQVSLFIDADEEQIKAAAEVGAPFIEIHTGCYADAKTDAEQAQELARIAKAATFAASLGLKVNAGHGLTYHNVKAIAAIPEMHELNIGHAIIGRAVMTGLKDAVAEMKRLMLEARG

Variants of: B1
Test: pyridoxine titer in culture supernatant of strain expressing the PdxJ variant; higher = more PN produced (higher in vivo pathway activity of the PdxJ variant)
Conditions: host strain: E. coli LL006; 48 h; temperature: 37 °C; FM1.4
Procedure: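 Rosetta-designed single to quadruple mutants of E. coli PdxJ (PNP synthase) were expressed from pRSFDuet-1 in the engineered chassis E. coli LL006 (MG1655 ΔpdxH::pdxST, pta::Eme_pdxP). Strains were grown in 24 deep-well plates in 2 mL FM1.4 glycerol medium at 37 °C and 800 rpm for 48 h. Extracellular pyridoxine (PN) titer was quantified by HPLC with fluorescence detection; two biological replicates, with the WT pdxJ strain (LL137, about 0.5 mg/L) as control.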

Q: Which pyridoxine titer does the source give for I13V E104T G194Q T196C here?
A: 0.3065 ± 0.0012 mg/L

Q: With H155I I218L as the variant, how does the pyridoxine titer read?
A: 0.66 ± 0.014 mg/L

Q: With T15I as the variant, how does the pyridoxine titer read?
A: 0.373 ± 0.14 mg/L

Q: With I10L I13V H155I L212I as the variant, how does the pyridoxine titer read?
A: 1.66 ± 0.076 mg/L

Q: For E104T A217V, which pyridoxine titer is on record?
A: 1.12 ± 0.014 mg/L

Q: With I10L T196C as the variant, how does the pyridoxine titer read?
A: 0.61 ± 0.028 mg/L

Q: Which pyridoxine titer does the source give for I10L T22V A23T I219C here?
A: 1.49 ± 0.02 mg/L

Q: For T15I T196C, which pyridoxine titer is on record?
A: 1.08 ± 0.071 mg/L

Q: With I219G as the variant, how does the pyridoxine titer read?
A: 1.3 ± 0.31 mg/L

Q: For A23T I219G, which pyridoxine titer is on record?
A: 0.76 ± 0.16 mg/L

Q: Which pyridoxine titer does the source give for I10L E100I I218L here?
A: 0.24 ± 0.16 mg/L

Q: Which pyridoxine titer does the source give for G7I E104T G194C I218L here?
A: 2.32 ± 0.19 mg/L

Q: Which pyridoxine titer does the source give for E104T G194C I218L here?
A: 9.71 ± 0.22 mg/L

Q: Which pyridoxine titer does the source give for A23T H155I L212I here?
A: 0.63 ± 0.014 mg/L

Q: For I10L H155I I218L, which pyridoxine titer is on record?
A: 0.28 ± 0.028 mg/L

Q: For I10L H12L T103L, which pyridoxine titer is on record?
A: 0.18 ± 0.028 mg/L

Q: Which pyridoxine titer does the source give for I13V E100I G194K L212I here?
A: 0.324 ± 0.15 mg/L

Q: For I10L A23T E100I, which pyridoxine titer is on record?
A: 4.81 ± 0.11 mg/L

Q: Which pyridoxine titer does the source give for E104T here?
A: 0.334 ± 0.033 mg/L

Q: With I13V E100I E104T T196C as the variant, how does the pyridoxine titer read?
A: 1.25 ± 0.031 mg/L

Q: With A23T L212I as the variant, how does the pyridoxine titer read?
A: 1.09 ± 0.79 mg/L

Q: With I10L T22V A23T as the variant, how does the pyridoxine titer read?
A: 6.93 ± 0.49 mg/L

Q: With A19Q V44I as the variant, how does the pyridoxine titer read?
A: 0.875 ± 0.47 mg/L

Q: With I10L A23T G194C as the variant, how does the pyridoxine titer read?
A: 1.27 ± 0.028 mg/L

Q: For A19Q G21M E100I, which pyridoxine titer is on record?
A: 0.47 ± 0.23 mg/L

Q: Which pyridoxine titer does the source give for E100I V101L here?
A: 2.12 ± 0.11 mg/L

Q: Which pyridoxine titer does the source give for I13V G21M E104T T196C here?
A: 1.98 ± 0.077 mg/L

Q: For L195I, which pyridoxine titer is on record?
A: 0.848 ± 0.15 mg/L

Q: For I10L G21D T22V E104T, which pyridoxine titer is on record?
A: 2.44 ± 1.1 mg/L

Q: Which pyridoxine titer does the source give for I13V I154L T196C here?
A: 0.52 ± 0.014 mg/L

Q: For I10L A23W V101L E104T, which pyridoxine titer is on record?
A: 1.8 ± 0.37 mg/L

Q: For A217V, which pyridoxine titer is on record?
A: 3.92 ± 2 mg/L

Q: Which pyridoxine titer does the source give for E100I V101L L212I here?
A: 0.86 ± 0.3 mg/L

Q: Which pyridoxine titer does the source give for H155I L212I here?
A: 0.36 mg/L

Q: For A23T I218L I219V, which pyridoxine titer is on record?
A: 5.75 ± 0.16 mg/L

Q: For G7L E104T, which pyridoxine titer is on record?
A: 0.65 ± 0.014 mg/L

Q: For G194C, which pyridoxine titer is on record?
A: 0.64 ± 0.33 mg/L

Q: With G7L I154L as the variant, how does the pyridoxine titer read?
A: 0.82 ± 0.68 mg/L

Q: With G7L N213I as the variant, how does the pyridoxine titer read?
A: 0.6 ± 0.11 mg/L

Q: For I218V, which pyridoxine titer is on record?
A: 0.374 ± 0.063 mg/L

Q: With A23T E104T T196V L212I as the variant, how does the pyridoxine titer read?
A: 2.61 ± 0.1 mg/L

Q: Which pyridoxine titer does the source give for A19Q G21M here?
A: 1.17 ± 0.38 mg/L

Q: Which pyridoxine titer does the source give for Y24I E100I here?
A: 0.81 ± 0.028 mg/L

Q: For A23T E104T G194K L212I, which pyridoxine titer is on record?
A: 0.349 ± 0.013 mg/L

Q: Which pyridoxine titer does the source give for I10L D11C A23T here?
A: 0.22 ± 0.057 mg/L

Q: Which pyridoxine titer does the source give for H12M here?
A: 1.79 ± 0.07 mg/L

Q: Which pyridoxine titer does the source give for I13V V44L E104T L212I here?
A: 0.354 ± 0.0062 mg/L

Q: Which pyridoxine titer does the source give for A23T V44I L212I here?
A: 6.75 ± 0.099 mg/L

Q: For I13V E104T T196R L212I, which pyridoxine titer is on record?
A: 4.01 ± 0.7 mg/L

Q: With T15I V101L T196C as the variant, how does the pyridoxine titer read?
A: 0.44 mg/L

Q: Which pyridoxine titer does the source give for I10L G194C T196L I218L here?
A: 0.562 ± 0.075 mg/L

Q: With E100I T103L L212I as the variant, how does the pyridoxine titer read?
A: 0.66 ± 0.47 mg/L

Q: For V44I, which pyridoxine titer is on record?
A: 0.719 ± 0.33 mg/L

Q: For I10L G194C T196Y I218L, which pyridoxine titer is on record?
A: 0.378 ± 0.044 mg/L

Q: Which pyridoxine titer does the source give for I10L A217V here?
A: 0.48 ± 0.028 mg/L

Q: For A23T I218L, which pyridoxine titer is on record?
A: 1.04 ± 0.45 mg/L

Q: For H155I N213I, which pyridoxine titer is on record?
A: 0.26 mg/L

Q: With A23T G194C T196F I219G as the variant, how does the pyridoxine titer read?
A: 0.237 ± 0.011 mg/L

Q: With I13V A217V as the variant, how does the pyridoxine titer read?
A: 1.81 ± 0.057 mg/L

Q: With I13V E100W E104T L212I as the variant, how does the pyridoxine titer read?
A: 0.293 ± 0.15 mg/L

Q: With E104T G194C I218L I219L as the variant, how does the pyridoxine titer read?
A: 4.45 ± 0.41 mg/L

Q: For T22V, which pyridoxine titer is on record?
A: 1.29 ± 0.091 mg/L

Q: Which pyridoxine titer does the source give for T15C A19Q V44I here?
A: 0.48 ± 0.057 mg/L

Q: With I154L as the variant, how does the pyridoxine titer read?
A: 1.72 ± 1.6 mg/L

Q: For I10L A19L A23T, which pyridoxine titer is on record?
A: 0.2 ± 0.028 mg/L

Q: Which pyridoxine titer does the source give for V101L A217V here?
A: 0.74 ± 0.2 mg/L

Q: With I10L A23T T103L as the variant, how does the pyridoxine titer read?
A: 0.24 mg/L

Q: With I13V T196C as the variant, how does the pyridoxine titer read?
A: 2.15 ± 0.18 mg/L

Q: Which pyridoxine titer does the source give for L195G L212I here?
A: 0.89 ± 0.014 mg/L

Q: With L195I T196C as the variant, how does the pyridoxine titer read?
A: 0.41 ± 0.014 mg/L

Q: With G21M as the variant, how does the pyridoxine titer read?
A: 0.428 ± 0.049 mg/L

Q: With I10L E104T I218L as the variant, how does the pyridoxine titer read?
A: 3.74 ± 0.56 mg/L

Q: For G194C T196V N213I I218L, which pyridoxine titer is on record?
A: 2.28 ± 1 mg/L

Q: For I10L I13V T196V L212I, which pyridoxine titer is on record?
A: 0.575 ± 0.077 mg/L

Q: For A23T V44I L212I I219W, which pyridoxine titer is on record?
A: 3.27 ± 0.26 mg/L

Q: With I10L T22V E104T I219L as the variant, how does the pyridoxine titer read?
A: 2.93 ± 0.16 mg/L

Q: Which pyridoxine titer does the source give for E104T L212I here?
A: 2.65 ± 0.071 mg/L

Q: For A23T T196W L212I, which pyridoxine titer is on record?
A: 1.71 ± 0.54 mg/L

Q: With I10L V101L as the variant, how does the pyridoxine titer read?
A: 1.46 ± 0.37 mg/L

Q: Which pyridoxine titer does the source give for T196C here?
A: 1.21 ± 0.38 mg/L

Q: Which pyridoxine titer does the source give for D11N here?
A: 1.88 ± 0.18 mg/L

Q: With G194C I218L as the variant, how does the pyridoxine titer read?
A: 1.33 ± 0.76 mg/L

Q: For A23T T103L L212I, which pyridoxine titer is on record?
A: 0.46 ± 0.014 mg/L

Q: For I10L V101L E104T I218M, which pyridoxine titer is on record?
A: 0 mg/L

Q: With G21M T196C as the variant, how does the pyridoxine titer read?
A: 0.68 ± 0.042 mg/L

Q: With G7M E104T G194C I218L as the variant, how does the pyridoxine titer read?
A: 0.955 ± 0.033 mg/L

Q: Which pyridoxine titer does the source give for I10L G194C I218L I219L here?
A: 1.09 ± 0.14 mg/L

Q: With G7W I10L I218L as the variant, how does the pyridoxine titer read?
A: 0.2 ± 0.014 mg/L
